“Also recorded” adds a separate entry of the source.
How the values were obtained:
[1] = system: PDGF-R β expressed on the cell membrane; assay: Flow cytometry binding to CHO PDGF-R β transfectant cells; parameters: species or system human; details: 0.1-1 μg/ml antibody; CHO PDGF-R β transfectants vs untransfected CHO
Protocol: The cells were washed once in cold PBS and resuspended in 50 μl of PBS containing 10 μg/ml FITC-conjugated goat anti-mouse IgG and incubated for 30 min. After another wash, the cells were fixed by resuspension in 0.25 ml of paraformaldehyde in PBS, and analyzed for fluorescence by flow cytometry on a FACScan (Becton Dickinson).

[2] = system: PDGF-R β; assay: Competitive binding with 125I-PDGF BB on transfectant cells expressing PDGF-R β; parameters: species or system human; details: 4° C.
Protocol: To determine the ability of muM4TS.11 and muM4TS.22 to block binding of PDGF BB to PDGF-R β, the following competitive binding experiments were performed. Transfectant cells expressing PDGF-R β were harvested, washed twice with cold DMEM, and resuspended at 10^6 cells/ml in DMEM. The assay was carried out in triplicate by incubating 100 μl of the cell suspension with either: 1) no antibody (to determine total binding); 2) varying concentrations of antibody; or 3) 100 ng cold PDGF BB (to saturate specific binding sites and determine non-specific binding) for 15 minutes at 4° C. Each sample received 1.0 ng ^125 I-labeled PDGF BB, and was incubated for an additional 60 min at 4° C. Unbound ^125 I-labeled PDGF BB was separated from that bound to the cell by layering the sample over a mixture of 80% dibutylphthalate, 20% olive oil in a microfuge tube, and microfuging briefly to pellet the cells through the oil mixture. The tubes were placed in dry ice to freeze the contents, the tip of the tube containing the cell pellet was cut off into a vial, and radioactivity was determined in a gamma counter.
To assess the ability of HuM4TS.22 to block the binding of PDGF BB to its receptor, competitive binding experiments of HuM4TS.22 with ^125 I-PDGF BB were performed according to the method described in Example 3.
To assess the ability of muM4TS.11 and HuM4TS.11 to block the binding of PDGF BB to the PDGF β receptor, competitive binding experiments of these antibodies with ^125 I-PDGF BB were performed according to the method described in Example 3.

[3] = system: PDGF-R β; assay: Competition with 125I-labeled murine antibody tracer on Sp2/0 PDGF-R β transfectant cells; format: binding, human; details: calculated from competitive binding data; Sp2/0 PDGF-R β transfectants
Protocol: To assess the ability of HuM4TS.22 to compete with muM4TS.22 for receptor binding, increasing concentrations of the two antibodies were respectively incubated on ice for one hour with Sp2/0 PDGF-R β transfectant cells and a fixed amount of tracer ^125 I-labeled muAb. The sample tubes were processed as in the blocking experiment just described.
To assess the ability of HuM4TS.11 to compete with the muAb for receptor binding, increasing concentrations of the two antibodies were respectively incubated on ice for one hour with Sp2/0 PDGF-R β transfectant cells and a fixed amount of tracer ^125 I-labeled M4TS.11. The sample tubes were processed as in the blocking experiment described. […] The binding affinities calculated from the data were: Ka =5×10^8 M^-1 for the muAb and 3×10^7 M^-1 for the HuAb.

[4] = system: CHO transfectant cell line expressing PDGF-R β (CHO C4); assay: Inhibition of PDGF BB-induced proliferation (3H-thymidine) of CHO C4 cells; format: cell-based, Chinese hamster
Protocol: To determine the ability of muM4TS.11 and muM4TS.22 to block PDGF-mediated proliferation, a CHO transfectant cell line expressing PDGF-R β (CHO C4) was generated, as described above. Proliferation of this line, as measured by incorporation of ^3 H-thymidine by DNA synthesis, is stimulated several-fold by PDGF BB. The CHO PDGF-R β transfectants were plated in a 96-well tissue culture plate at about 50,000 cells/well in Ham's F-12+10% FCS and incubated for 1-2 days. The medium was removed, and the cells were washed once with serum-free medium (Ham's F-12+1 mg/ml BSA) and incubated in this media for 1-2 days to put them in a quiescent state. The appropriate amount of antibody in serum-free medium was added, and after 1-3 hours, 50 ng/ml PDGF BB was added. After overnight incubation, 1 μCi ^3 H-thymidine was added, and after a final 4 hour incubation, the cells were harvested using a PHD cell harvester (Cambridge Technology) and analyzed with a scintillation counter.

[5] = system: human primary fibroblast cell line AG1523B; assay: Inhibition of PDGF BB-stimulated proliferation of AG1523B fibroblasts; format: cell-based; details: 300 ng/ml PDGF BB
[6] = system: Rat aortic smooth muscle cells (SMC); assay: Inhibition of PDGF BB-mediated proliferation of rat aortic smooth muscle cells; format: cell-based; details: PDGF BB 10 ng/ml, 3H-thymidine 19 to 26 hr
Protocol: To determine whether muM4TS.11 inhibits PDGF-mediated proliferation of rat cells in vitro, the following experiment was performed. Rat aortic smooth muscle cells (SMC) were plated at a 1:3 split ratio in 10% FCS and made quiescent 24 hours later by changing the medium to 1% control process serum replacement II (Sigma, St. Louis, Mo.). Three to five days later, the cells were stimulated with PDGF BB (10 ng/ml). At the time of stimulation, increasing doses of the specific MAb or mouse IgG (control) were added. Cell proliferation was determined by measuring ^3 H-thymidine incorporated into DNA when the cells were pulsed from 19 to 26 hr after stimulation. MuM4TS.11 inhibited proliferation in a concentration-dependent manner with an IC50 of about 0.5 μg/ml.

[7] = Pharmacokinetics in rats (plasma antibody by ELISA); format: in vivo, rat
Protocol: In preliminary experiments to determine the pharmacokinetics of muM4TS.11 in rats, an initial dose of antibody was injected and blood samples obtained at 1, 2, 3, 6, 12, 24, 36, and 48 hr. Antibody levels in plasma were measured by ELISA. The half-life of the antibody in rats was approximately 1 day. […] (In humans, proportionally smaller and less frequent doses are likely to be sufficient for a humanized anti-PDGF-R β antibody such as HuM4TS.11 or HuM4TS.22 to be effective, because of the expected longer half-life in humans and higher affinity for human PDGF-R β of these non-immunogenic HuAbs).

B1: muM4TS.11: murine monoclonal antibody to PDGF-R β, variable regions SEQ ID NOS:10 and 12; epitope in fourth extracellular domain (antibody, V domains shown)
VL: METETLLLWVLLLWVPGSTGDIVLTQSPPSLAVSLGQRATISCRASESVDSYGNSFMHWYQQKPGQPPKLLIYRASNLESGIPARFSGGGSRTDFTLTINPVEADDVATYYCQQSNEDPPTFGGGTKLEIK
VH: MERHWIFLFLFSVTAGVHSQVQLQQSGAEVAKPGASVKMSCKASGYTFTNCWMHWVKQRPGQGLEWIGYINPTTGYSEYNQNFKDKATLTADKSSNTAYIQLSSLTSEDSAVYYCTSNYGHYDWFANWGQGTLVT
specific binding to membrane PDGF-R β by flow cytometry [1]: specifically bound to CHO PDGF-R β transfectant cells but not to untransfected CHO cells
blocking of 125I-PDGF BB binding to PDGF-R β [2]: did not; also recorded: neither muM4TS.11 nor HuM4TS.11 were able to inhibit binding of PDGF BB to its receptor
binding affinity Ka [3]: 5e+08 M⁻¹
inhibition of PDGF-mediated proliferation compared with another antibody [4]: about two times more effectively than with HuM4TS.11
inhibition of PDGF BB-induced proliferation ([4]; 50 ng/ml PDGF BB, sufficient antibody concentration): completely inhibited proliferation of the cells induced by PDGF BB; also recorded: almost completely inhibited the stimulation of proliferation by PDGF BB
inhibition of stimulation of proliferation by PDGF BB [5]: effectively inhibited the stimulation of proliferation by PDGF BB
IC50 of inhibition of proliferation [6]: about 0.5 μg/ml
time antibody level stays above the in vitro inhibitory concentration ([7]; 4 mg bolus, then 2 mg IV every 24 hr for 4 days): at least 7 days
half-life of the antibody ([7]; preliminary experiments, plasma): approximately 1 day

Source: patent publication US5882644A, “Monoclonal antibodies specific for the platelet derived growth factor β receptor and methods of use thereof” (Protein Design Labs, Inc., priority 1996, dated 1999)
